What was measured:
[1] = target: T1, MURF-1 (Muscle RING Finger 1), native protein without epitope tag (murine, UniProt Q9ERP3 1-366); assay: immunofluorescence in cotransfected Hela cells, legend of FIGS. 6B-D
T1 construct: 366 amino acid protein, 41 kDa; also called endogenous MURF-1; native MURF-1
T1 sequence: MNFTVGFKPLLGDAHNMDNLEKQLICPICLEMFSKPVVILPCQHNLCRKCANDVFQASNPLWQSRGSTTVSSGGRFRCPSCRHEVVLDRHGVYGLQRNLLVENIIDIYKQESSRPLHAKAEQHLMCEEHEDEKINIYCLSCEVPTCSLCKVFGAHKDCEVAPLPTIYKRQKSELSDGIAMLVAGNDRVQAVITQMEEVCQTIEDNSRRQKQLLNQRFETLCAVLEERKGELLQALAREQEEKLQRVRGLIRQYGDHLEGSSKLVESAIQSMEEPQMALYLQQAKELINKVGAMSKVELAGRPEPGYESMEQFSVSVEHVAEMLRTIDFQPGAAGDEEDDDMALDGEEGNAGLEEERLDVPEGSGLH
Excerpt: (§1) The leucine-rich coiled-coil domain mediates homo-oligomerization of MURF-1. FIGS. 6B-D. MURF-1 binds to microtubules in a homo-oligomeric form. Hela Cells were transfected with Flag-tagged full-length MURF alone (FIG. 6B) or in combination with myc-tagged MURF-1 (FIGS. 6C and 6D) and immunofluorescence performed. Flag-tagged MURF-1 forms aggregates in the cytoplasm of the cell. In the presence of myc-tagged MURF-1, the Flag-tagged MURF-1 and myc-tagged MURF-1 are colocalized in filamentous structures in the cell. Identical results were obtained using native MURF-1 lacking an epitope tag.
For immunofluorescence, cells were extracted with 1% Triton X-100 in PBS for 1 minute, washed twice in PBS, and fixed for 15 minutes in 3.7% formalin in PBS. Cells were then washed three times in PBS and blocked in PBS containing 3% Bovine Serum Albumin and 0.1% NP40 for 30 minutes. All antibodies were incubated in fresh block solution for 60 minutes at ambient temperature. Myc-tagged versions of MURF-1 were detected using antibody 9E10 (Santa Cruz) at a dilution of 1:250. Flag-tagged versions of MURF-1 were detected using the M2 Flag antibody at a dilution of 1:500 (Kodak). Microtubules were detected using alpha-tubulin antibody at a dilution of 1:2000 (Sigma). Intermediate filaments were visualized using vimentin antibody at a dilution of 1:500 (Sigma). […]

[2] = target: T2, full-length MURF-1 with C-terminal myc tag (murine, UniProt Q9ERP3 1-366); assay: co-immunoprecipitation of 35S-labeled in vitro translated myc-tagged and Flag-tagged MURF-1 with Flag antibody M2
T2 construct: Expressed in transfected cells (Hela, Cos, 293T and others) or translated in vitro with 35S-methionine; also called myc-tagged MURF-1; myc-tagged MURF; not shown: C-terminal myc/HIS tag of vector pcDNA3.1 myc/HIS (Invitrogen)
T2 sequence: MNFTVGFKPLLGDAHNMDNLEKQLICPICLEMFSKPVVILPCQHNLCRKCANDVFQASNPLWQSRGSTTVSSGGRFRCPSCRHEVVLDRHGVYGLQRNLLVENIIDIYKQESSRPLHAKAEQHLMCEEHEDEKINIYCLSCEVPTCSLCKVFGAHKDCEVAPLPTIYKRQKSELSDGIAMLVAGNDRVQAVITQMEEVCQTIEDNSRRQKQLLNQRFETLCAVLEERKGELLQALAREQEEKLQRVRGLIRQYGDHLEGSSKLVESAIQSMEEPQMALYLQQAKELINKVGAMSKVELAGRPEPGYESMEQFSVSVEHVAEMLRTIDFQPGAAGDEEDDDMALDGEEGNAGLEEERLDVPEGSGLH
Excerpt: as §1, with “FIGS. 6A-6D—Mapping domains of MURF-1 required for homo-oligomerization. FIG. 6A. Various forms of N-terminal Flag-tagged MURF-1 and full-length C-terminal myc-tagged MURF-1 were in vitro translated in the presence of ³⁵S-methionine and immunoprecipitation performed as described in Material and Methods. The” for “The”
In vitro transcription/translation was performed as directed by the manufacturer (Promega). Plasmids used were C-terminally myc-tagged full-length MURF-1 and various Flag-tagged deletions of MURF-1. Immunoprecipitations were performed using ³⁵S-methionine-labelled in vitro translation products. Briefly, ³⁵S-methionine-labelled products were incubated with agitation in 1 ml of immunoprecipitation buffer (PBS, 0.5% Triton X-100, 0.25 mM zinc sulphate) at 4° C. for 2 hours. […]

B1: full-length MURF-1 with N-terminal Flag tag (other)
chain: MNFTVGFKPLLGDAHNMDNLEKQLICPICLEMFSKPVVILPCQHNLCRKCANDVFQASNPLWQSRGSTTVSSGGRFRCPSCRHEVVLDRHGVYGLQRNLLVENIIDIYKQESSRPLHAKAEQHLMCEEHEDEKINIYCLSCEVPTCSLCKVFGAHKDCEVAPLPTIYKRQKSELSDGIAMLVAGNDRVQAVITQMEEVCQTIEDNSRRQKQLLNQRFETLCAVLEERKGELLQALAREQEEKLQRVRGLIRQYGDHLEGSSKLVESAIQSMEEPQMALYLQQAKELINKVGAMSKVELAGRPEPGYESMEQFSVSVEHVAEMLRTIDFQPGAAGDEEDDDMALDGEEGNAGLEEERLDVPEGSGLH
notes: Translated in vitro with 35S-methionine for immunoprecipitation, or expressed in Hela cells; also called Flag-tagged MURF-1; Flag-MURF-1; not shown: N-terminal Flag tag (vector pECE-Flag, subcloned into pcDNA3.1)
- binding result [1]: binds
- binding result [2]: binds
